As a reminder, the Kd is the concentration at which binding is half-saturated. A high value points to lower affinity.

Primed or numbered codes have the meaning given here. Where no end group is shown, it is not given here. [ ]: non-standard residue; d: D form. The star is where a group is joined. Biotin = O=C1N[C@H]2[C@H](CS[C@H]2CCCCC(=O)*)N1; Lys(Me3) = C[N+](C)(C)CCCC[C@H](N)C(=O)O; PEG4′ = not defined here

One experiment has as its target T1, PLPP3 (human, UniProt O14495 1-311).
T1 construct: whole, on cells
T1 sequence (looked up): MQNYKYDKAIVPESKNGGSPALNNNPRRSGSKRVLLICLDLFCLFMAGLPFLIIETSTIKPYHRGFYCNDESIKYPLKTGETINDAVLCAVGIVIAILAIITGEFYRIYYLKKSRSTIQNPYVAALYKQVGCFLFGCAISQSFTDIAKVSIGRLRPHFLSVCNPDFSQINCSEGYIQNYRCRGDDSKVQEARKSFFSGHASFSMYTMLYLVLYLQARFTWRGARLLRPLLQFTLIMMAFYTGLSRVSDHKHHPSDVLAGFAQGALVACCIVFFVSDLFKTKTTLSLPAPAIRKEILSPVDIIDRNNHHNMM
Description: cell microarray on HEK293 cells. How it is done: (§1) Initially, two pools of compounds were tested. […] To perform this assay, HEK293 cells were plated on a dish and localized spots of cells were transiently over-expressed with a single cDNA encoding for GFP and one of the 6,416 targets. Included in this library were multiple clones for the Nectin family members, including plasma membrane, non-tethered secreted, and tethered secreted forms of Nectin-1, 2, 3, and 4. Secreted protein targets were tethered to the plasma membrane to aid in detection. The molecule pools were incubated on the fixed, over-expressing cell microarrays (n=2 per protein), and binding was visualized using Alexa Fluor 647 streptavidin fluorescence.

A further experiment addresses T2, IGFBP4 (human, UniProt P22692 22-258).
T2 construct: whole, on cells; Secreted targets were tethered to the plasma membrane
T2 sequence (looked up): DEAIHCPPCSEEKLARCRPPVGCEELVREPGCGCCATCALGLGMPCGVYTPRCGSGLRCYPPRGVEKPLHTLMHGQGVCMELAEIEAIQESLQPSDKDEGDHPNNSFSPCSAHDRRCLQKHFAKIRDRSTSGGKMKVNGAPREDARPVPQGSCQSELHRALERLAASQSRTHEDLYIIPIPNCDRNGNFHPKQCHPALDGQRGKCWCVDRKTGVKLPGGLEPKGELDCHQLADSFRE
Kind of experiment: cell microarray on HEK293 cells. How it is done:
as §1

In another experiment the target is T3, Nectin-1 (human, UniProt Q15223 31-517).
T3 construct: whole, on cells; Plasma membrane, non-tethered secreted and tethered secreted forms in the library
T3 sequence (looked up): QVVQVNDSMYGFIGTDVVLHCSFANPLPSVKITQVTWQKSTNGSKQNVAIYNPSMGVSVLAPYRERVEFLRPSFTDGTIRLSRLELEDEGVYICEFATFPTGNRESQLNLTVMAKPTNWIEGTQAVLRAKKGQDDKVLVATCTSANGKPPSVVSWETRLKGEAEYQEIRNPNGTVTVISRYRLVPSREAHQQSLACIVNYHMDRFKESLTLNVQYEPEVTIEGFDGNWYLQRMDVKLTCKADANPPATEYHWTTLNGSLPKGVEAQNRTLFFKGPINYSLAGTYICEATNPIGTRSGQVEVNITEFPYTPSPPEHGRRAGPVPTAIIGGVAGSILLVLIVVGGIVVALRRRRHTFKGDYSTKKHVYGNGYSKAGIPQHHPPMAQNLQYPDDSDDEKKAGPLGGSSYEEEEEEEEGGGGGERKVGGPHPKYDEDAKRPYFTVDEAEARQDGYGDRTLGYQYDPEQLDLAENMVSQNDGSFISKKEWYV
Kind of experiment: cell microarray on HEK293 cells, pooled compounds. The protocol:
as §1

In a further experiment the target is T4, Nectin-2 (human, UniProt Q92692 32-538).
T4 construct: whole, on cells; Plasma membrane, non-tethered secreted and tethered secreted forms in the library
T4 sequence (looked up): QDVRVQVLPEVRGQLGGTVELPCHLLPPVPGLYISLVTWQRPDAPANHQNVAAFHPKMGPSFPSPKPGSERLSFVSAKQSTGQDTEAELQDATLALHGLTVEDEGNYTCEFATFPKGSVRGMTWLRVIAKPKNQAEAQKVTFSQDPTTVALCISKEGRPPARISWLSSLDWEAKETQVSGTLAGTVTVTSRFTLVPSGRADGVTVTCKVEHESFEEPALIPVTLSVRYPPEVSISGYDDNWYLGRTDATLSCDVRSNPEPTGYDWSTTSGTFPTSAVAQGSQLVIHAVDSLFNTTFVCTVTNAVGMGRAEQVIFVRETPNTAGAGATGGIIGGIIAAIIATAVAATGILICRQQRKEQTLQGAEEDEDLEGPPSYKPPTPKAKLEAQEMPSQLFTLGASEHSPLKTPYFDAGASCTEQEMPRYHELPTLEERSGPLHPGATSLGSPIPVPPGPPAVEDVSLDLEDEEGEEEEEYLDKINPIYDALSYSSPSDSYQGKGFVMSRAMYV
Kind of experiment: cell microarray on HEK293 cells, pooled compounds. The protocol: as §1

For experiment [1], the target named is T5, Human Nectin-4 (human, UniProt Q96NY8 32-349, limits assumed).
T5 construct: Protein immobilised on the SPR chip; also called target protein
T5 sequence: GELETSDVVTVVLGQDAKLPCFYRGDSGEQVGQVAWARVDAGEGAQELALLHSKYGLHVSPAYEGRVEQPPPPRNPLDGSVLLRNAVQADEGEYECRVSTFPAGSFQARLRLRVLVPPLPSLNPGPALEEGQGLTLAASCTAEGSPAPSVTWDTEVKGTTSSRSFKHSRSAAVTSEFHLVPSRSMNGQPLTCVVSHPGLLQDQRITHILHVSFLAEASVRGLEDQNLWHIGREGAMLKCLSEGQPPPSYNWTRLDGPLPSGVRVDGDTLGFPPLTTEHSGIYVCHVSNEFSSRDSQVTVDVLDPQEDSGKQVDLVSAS
Description: SPR, Biacore T200, target immobilised, 1:1 model. How it is done: Surface plasmon resonance (SPR) analyses were performed using Biacore T200 (GE Healthcare). Target protein (“ligand”) was immobilized to a CM5 Series S sensor chip (Cytiva) using amine-coupling chemistry. Running buffer was 0.05% surfactant P20 in HEPES buffered saline (HBS-P), pH 7.4 (Cytiva). Immobilization was performed at 25° C. Carboxyl groups in each flow cell were activated using a 1:1 mixture of 0.4 M 1-ethyl-3-(3-dimethylaminopropyl)-carbodiimide in water (EDC) and 0.1 M N-hydroxysuccinimide in water (NHS) for 7 minutes. The ligand was prepared in 10 mM sodium acetate pH 5 (Cytiva). Pulsatile injections were made to target a specific immobilization level. Any remaining amine-reactive esters on the chip surface were blocked with a 7-minute injection of 1 M ethanolamine, pH 8.5. Three 10-second pulses of 50 mM sodium hydroxide were then made to remove any unbound ligand. Reference cells were modified using amine coupling chemistry, omitting ligand injection.
Increase in signal (RU) is proportional to an increase in binding events between the analyte and ligand surface. The injection was then stopped, and dissociation was measured. […] Measured association (kₐ, 1/Ms⁻¹) and dissociation (kd, s⁻¹) were fit to a 1:1 binding model to calculate a dissociation equilibrium constant, KD(M) for each analyte.
In general terms: Surface plasmon resonance follows binding to a sensor surface in real time, without labels.

The target in experiment [2] is T5, Human Nectin-4. Description: Table 2B (DELFIA or SPR).

On to {Biotin-PEG4′}-CEYDEEFFTALARLRGGDICQYIQA[Lys(Me3)]FQYLPALCIEEILDNLGCS (designed binder, cysteine pairing not given here) [C253], for which the binding result with PLPP3, in the experiment with IGFBP4, with Nectin-1 and with Nectin-2 was “no binding (tested: 2 µg/mL)” in each case. In addition, the Kd with Human Nectin-4 [1] amounted to 0.255 nM.
With {Biotin-PEG4′}-CDYDEQFFTALKRLRGADICEYIQASFQYLPGECIEEILDNLGCS (designed binder, cysteine pairing not given here) [C208], the figures for the Kd in the experiment with Human Nectin-4 [2] and with Human Nectin-4 [1] were 1.02 nM and 0.302 nM, respectively. The binding result with PLPP3, with IGFBP4, with Nectin-1 and with Nectin-2 was “no binding (tested: 2 µg/mL)” throughout.
Regarding {Biotin-PEG4′}-CDYDEQFFTALARLRGADICEYIQASFQYLPGECIEEILDNLGCS (designed binder, cysteine pairing not given here) [C247], the binding result with PLPP3, in the experiment with IGFBP4, with Nectin-1 and with Nectin-2 was “no binding (tested: 2 µg/mL)” each time. Moreover, the Kd with Human Nectin-4 [1] was 0.283 nM.
On to {Biotin-PEG4′}-CDYDEQFFTALKRLRGGDICEYIQASFQYLPGLCIEEILDNLGCS (designed binder, cysteine pairing not given here) [C190], for which the Kd in the experiment with Human Nectin-4 [2] was determined as 0.71 nM; with Human Nectin-4 [1], 0.318 nM. The binding result with PLPP3, in the experiment with IGFBP4, in the experiment with Nectin-1 and with Nectin-2 was “no binding (tested: 2 µg/mL)” throughout.
On to {Biotin-PEG4′}-CEYDEQFFTALKRLRGDDICDYIQASFQYLPGLCIEEILDNLGCS (designed binder, cysteine pairing not given here) [C197], for which the results for the Kd in the experiment with Human Nectin-4 [2] and with Human Nectin-4 [1] were 0.97 nM and 0.212 nM, respectively. Further, the binding result with PLPP3, with IGFBP4, with Nectin-1 and in the experiment with Nectin-2 was “no binding (tested: 2 µg/mL)” throughout.

For the origin of these results see US20260151519A1 (AKTIS ONCOLOGY, published 2026).
